{"source": "paper PMC2915760", "proteins": {"B1": {"name": "Lyp (lymphoid-specific protein tyrosine phosphatase, PTPN22), wild-type (Homo sapiens) (protein)", "chain": "MDQREILQKFLDEAQSKKITKEEFANEFLKLKRQSTKYKADKTYPTTVAEKPKNIKKNRYKDILPYDYSRVELSLITSDEDSSYINANFIKGVYGPKAYIATQGPLSTTLLDFWRMIWEYSVLIIVMACMEYEMGKKKCERYWAEPGEMQLEFGPFSVSCEAEKRKSDYIIRTLKVKFNSETRTIYQFHYKNWPDHDVPSSIDPILELIWDVRCYQEDDSVPICIHCSAGCGRTGVICAIDYTWMLLKDGIIPENFSVFSLIREMRTQRPSLVQTQEQYELVYNAVLELFKRQM"}}, "substrate": "O=[N+]([O-])c1ccc(OP(=O)(O)O)cc1", "experiment": "purified protein"}
{"protein": "B1", "values": [{"measurement": "Km", "value": "4.86 ± 0.39", "unit": "mM"}]}
